In the NTF2 design screens of Basanta et al. (2020) one finds protease stability score data, which are given here for 47 sequences.

A short description of this data set: protease stability score; higher = more stable; yeast display proteolysis, trypsin and chymotrypsin.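 Further: relative to predicted unfolded state with 0 unfolded-like and 1 meaning tenfold more protease.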
The sequence “NEEEKRMVEEHEKFWNFVRTGDEDTVRDLIDPHARVIQGNKILHGWEEAVRWMKEIRIHDIRIHSSHEVDGRVTITGDMDFEFNGKRHILEVRIFLLKIDGRWIHTFIQID” showed a protease stability score of 1.33.

Turning to “NEEEQEILEDVEEHIRAEYTGDEEVLDNLADPNTRIHYGEKELHGREEWLQLVHDEHNRFKGMKIEVIIRHIDIYDGRVRSEGELHIHVGDKEYHVDVQMILTKVNGRWLLTRIHFH”, the protease stability score stood at 0.093.

Regarding “NEEERENIRIFMMWIEDLVTGNWDRIEHLADPHYRQDVNGRHIHGRDTFAQMVREEMHRIDHHEIKLRHVSVQGNKLRAHVEINLIIGEKRIEKEVIVDLNVINGVLHEVKIVVR”, the protease stability score came out at 1.04.

The sequence “NEEFRDAQMAAHEFINVMETGDEHLLSRRLDPNMRVDINGREFHGWEQWVRIFREIRVKSIRYEEIRVQGDKVHLHTRLHVTIGDYEFTTETTIFIDKINGVWYIKEFHMN” had a protease stability score of 0.253.

In turn, “NEEHEVLERVVELFMEILDTGNERLSRELVDPHVRVIIGDKELHGREQVARFHKELHERVDHWEIHIRRIEFQGDKLHMDFELRNDYNGVRITTDLIILVKKVNGVWKLRAREVR” had a protease stability score of 0.271.

“NEEKEEAERFTRQFLHSWRTGDEESLKRMADPNVRIIVGDYEKVGWEAIEETIKRLGIDHLEYHSVHVHVIGDKVNIHSDVRIQVNGQERDVQIHVHMRKINGRWFVESIRLNFH” yielded a protease stability score of 1.26.

The sequence “NEEKELWHKDIEDLQRDWKTGDEDSVREQLDPDVRLDINGVEIIGMEEATRFIIELMREIRIHVNLERIIIQGDKIILHGNLVVEQGDKHHITRQTIDARKVDGRWFEHKVRVE” gave a protease stability score of -0.033.

The sequence “NEEKETADTFLRHLVHRLHTGDEDMLMRLADPHVLIIQGDKTYHGWHWFERNFLEQINRFKGLTVKVERKDVHLFENRLILEGTLHLEFNGRDVHIEQEIIVHKINGRWILTHYMLI” displayed a protease stability score of 0.813.

“NEEKRDSDILRRHLLEVLDTGDWDRMHELADPNAKTHFNGRDHHGREDMTHLFRELGVKHQELRSVHLQGNYVEITIHVSVDGRHVHLRFFMVKIDGKWRIRHMEIEWL” showed a protease stability score of 1.14.

Turning to “NEEQKEAEDFMRMVSRIHETGDEDSLRRYFDPNVRIKDENHHLHGWKELIHWTHRVDHIEVRVKNVDIQGDKIHLDGEEIVRIDGVEVRRRVLFILTKVNGRWHIQEIRIE”, the protease stability score stood at 0.72.

The sequence “NEEQNHAERMMRENLHNIMTGDEHKLHKLADPDARIEIGDKEIIGRELFSRILLELRFEITRVHIREITLIGDKVHVRTEEDVVIKVNGVEKRRHINSEWIFFKFNGQWLLKEVRFE” registered a protease stability score of 1.34.

“NEERSHSEEVARLISHAWETGDEETLREQVDPHVKLVIGDKTFHGREEALTIIVQLRLRTVEIHDMKVVNGRLNLFTLWHIEIDGRRVLHHVVIHIEKIDGRWVMTEVRVH” registered a protease stability score of 2.1.

In turn, “NEHEETIEILFRDIVHVLRTGDWKLFSDLMDPHARYVIGDKTFHGRESWVREFDRLLEQIKGVRFDVRHVNVVGDKVHAFTDWEFNGVMFDTRLDLHIVDGRIKEMRLEIR” returned a protease stability score of 1.12.

Take “NEHEEYARRQLELWLHATRTGDEETVRRLADPDVRVIVDGREHHGMEQLLRWMIELRITDFKEDTYEIQGNKIKIRGILYIEIGDKHETRFTTIELNWFNGVLKHIKVEVR”: the protease stability score is 1.28.

On to “NEHEKLLKESLEELRHALRTGDEESLERLVDPHARMVVNGVTYHGREYLHRFFHRIDYFHNEHLDVKEVHVQGDKIHFDVVTHGVFHVGDKKIKDTIRLSSIAEKIDGRWFNREIFHH”, for which the protease stability score was 0.412.

“NEHKEEALHALQLWLRYYETGNEDSLREMLDPNVRVVINGKELHGMELFLDYIVDTRDRIKGLRIIIDDIEIHYVGDKVHVNIRGISYFNGREHEVEINIFSRKINGKWYLSSLELRVN”: the protease stability score stood at 2.55.

“NEIEEIVERLWRLYIQNRLTGDEDQMSRLADPHTRVHIHIGDKHIDIHGMENTARLTTKLRREIRMEIEIHHVTVQGNKLHAEVRLILHIGDKILESDTRIINIFVDGKLRTVHIHIE” displayed a protease stability score of 1.32.

“NEIEELVRESLELLAHALETGDEKLMTELADPDTRLIVNGRHLWGWELHLMFLTRFDHIETRIRLTEMEVQGEKVNSRGDMDVIVNVDGQRDRKRHEFIIISTKINGRWRLKSVILR” had a protease stability score of 1.57.

On to “NEINRHLHEAFKKLINVMMTGDEEESTELLDPNARINFNGKDFWGWNELRKSMHEARIHHIQITSVRYIGDKIIIHGTVDGEFDGQRKEVEMEIFSRKFNGQWFFESIIIR”, for which the protease stability score is 1.28.

As to “NEKEEESKRFIELFMELIVTGNEEVLYKLADPTVQWRADVDGQEINLHGWEHIHDEINKFPNITLELEEREIQGDKVDIRTRLHIGDKTRDTRVIIIVINGRVKQIHIEIR”, the protease stability score is 2.28.

Sequence “NEKEELLRKIMDMLIRHWETGDFEKLMELADPNVRLHYEQGDKEHHHHGREDVAKFIEELLRMLGVDHWHLEKIEIVGEKLHLHGRIHVNGRTIDLRIHWVVVNGVLKSVRIILG” displayed a protease stability score of 1.14.

The sequence “NELDKHTKEFAERWIKSVETGDWRSEEHLLDPHVKLETKVNGRDVRVVGREEVHRYLRELHEELGVDKVEFITRRIRLQGDKIDIDGELRINGRTHEAHIHLDIINGRIHSVRLQWT” showed a protease stability score of 1.44.

“NELEDLVRWAWQLIVESHQTGNEHMMEELADPNMRIHINGVDLVGRKDFRKMLKDHRDRVDHLEVELTDFILIDGRVIVHGQINIQIGDKREERRVRLFLLKINGKWRIEKLEVE” showed a protease stability score of 1.64.

Sequence “NELEDRFDYAMKLWIDILRTGDEHQFEEMADPNVRIIDGDKHNVGREILYFLLWKFGFDNFEFRLHDFKIQGEKIHIDGHFRVDGQTHRVHFVVLKIDGRWLVESVERK” came in with a protease stability score of 2.01.

“NELEEEAHRKMEKVLRHLQTGDEDSLHRLLDPNVRLIVGDKEMHGRERAVEVLSRILKEMGVKHIKLRRFSVFNGVAHTDSELNQGEYVHNLHLVIEKVDGQWVMRSLHIE”: the protease stability score came to 1.41.

For the sequence “NELEKETHEITRRWIEILLTGNEEDWAKLADPHVRIDINGKKYVGREMVVEYLRELLDKIKNLQFHITRIHDQGDKSEIDGRLEYNGRKHEARVEIWIIDGKIRSEHYSIR”, the protease stability score was determined as 2.2.

For “NELEKHLREMTREMLEAWRTGDFDHLEHLADPHVRIETIYNGQREEFHGREWLIKAVERLDRLMGIDHIYFQEWTTIGDFVDVDLRTQVGDKRIRLHMELNVVNGRIKFHRIEVE”, the protease stability score was 1.24.

Take “NELEKWVEQATREILRVMETGDPNETEKLIDPHVRREQGEFIYHGWENITHFMEHARFERYKLHDVDLQGDYVNLNGRLDGVYNGKKERTEVEFYVLKINGRWHVTSMHVH”: the protease stability score stood at 1.28.

“NELHKEYRHMLHILRHIIETGNERALEENMDPNYRIEIGDKRIHGREKALEFWWRLNKRVDHLELHDEHINLFEGHVEIDGRLILKQGEYIEESKTTIFIVKVNGRWVLRSFRVE” gave a protease stability score of 1.86.

The sequence “NELQYKILHALRLFVESLLTGDPTTIERLLDPDARNQWDGVHHVGMEEWSRFLEELRIQIHDLEFKHIEIVDGQLRVDGREDMIIDVNGVRTRTNRKLRLIIVKFDGRWRIESVKVE” displayed a protease stability score of 1.22.

Sequence “NELTEVIRYWIHLWLTQLFTGNEEIIRRLADPNARFEVNGREIHGMDEWVDILKRLGMRFHHFHVDTIEIIDGVIHVQSRFDIDINGRRVNEETYHVIEKINGRWTLRTMELR” displayed a protease stability score of 2.31.

As to “NEMDEHARHFAELFLRLMRTGDEETTEKLADPHVKVVIGDFEFHGWKMLSIFLREIRIHDIRLEDHRTQGNKSIIHGRTDGEINGQRYETELYIELHLVNGRLKSMRFEWR”, the protease stability score stood at 0.698.

For “NEMEEYVERASRFVYELLQTGDWEKLMNNMDPNVKIRQGNKEYHGREELKRQLEELFKNWGFDRIDVEHHEIKIFENHAHIIHIMRFDGVEHELRIKALKVNGQWLFKTVEIRLH”, the protease stability score amounted to 1.36.

As for “NEMHDFAKLAIELLLKSLKTGDEHTLEHLLDPNVRMNIDGRRWHGRENWVKRVHDLGITTRDFKLTDVKNQGNKVHIDGHAVEEVNGQRIERRVEIISVKIDGKWEIEEIRIE”, the protease stability score stood at 1.02.

In turn, “NEMHEHAREFLERWKEWMHTGDEETMSKLADPHVRNEYNGVIRVGMEALEKVIRELRVRRTHDHHEHIEFQGDKLHIHVDQESDIEINGVRHRVRIHFDIISVKINGKWTLKSIRLTFH” registered a protease stability score of 1.41.

In turn, “NERDERVEELMKLWFESLRTGDWRQMRNLLDPHARVIMLVGDKHVELHGWEAMLLLIHQFRNIRLRIDSTRLQGDKLEIEGTSEFDGKHRNVVIEIQVINGRIHTIKYIED” had a protease stability score of 2.1.

“NEREEHIRRLAELVRELIDTGDFDRLIKNADPNVRLEMEIGDKRIEHHGRERVHEQLEEFERRFKNATFIWKRIDVQGEKVLLDGTIRINGQEHEMHWDNQMFNGRIHSIRIDVR” showed a protease stability score of 2.2.

Consider “NEREKLVLDLAMRWFEAWLTGDEHLLHLLADPNVRFIYGDKHLIGMDELHRFLREIRIISRDRHFEDKRVIGDKVELDVRLRGEVDFNGRRLDIDLTVHIESHIINGKQHTSRMETI”, for which the protease stability score worked out at 1.07.

In turn, “NEREKWAVDMFEILVHLFFTGDEEIMAHMADPNTQIHYGEYHHHGRDHLRELLREEFKRVDHVEWRLDTVRIIDGRVLIHSHVIHKVGEKTIKREYVIILLKVNGQWHIKHIEIR” had a protease stability score of 1.46.

“NERKKFIEELARLYFKWWLTGDFENLLRNADPNTRIDVNGREIIGREKFVEELREHVDKFKNIREDLHDMDLQGDKVILHIRMNVDGKTIEVRVEIFVINGQIRSESWRFE” showed a protease stability score of 1.34.

Regarding “NERTEEIEEAMERMLEWWRTGNFEDINKNLDPNMRTHVFIDGREVLFHGRELMLEIFDRMGVDHIEVTHFDVIGNKVEVHSRSHQGDKHVDIKLVLEKIDGRWILSQIHIRIE”, the protease stability score is 1.94.

Turning to “NESEELYRIALELKRETDKTGDEEIFRKLMDPSTRLEVDGRIWHGREAVEVFIRRFDHLHRFEVKDTRVFDGQVQIEGELDSTVGDKRLNVHIEVFAIKFDGRWRLKSVRVE”, the protease stability score worked out at 1.58.

Sequence “NETEELLRRMIEDNLRAMLTGDEERIRKLADPNVRNHINGRTHVGREELAHVFHRIFEEWRIDHMTLRDSDTQGEFIILHYIFDIRFDGRRQELEVEIIFYKIDGRWILHKITFK” came in with a protease stability score of 0.75.

Regarding “NEVDEWVEEAVHLLEEILETGDFRELSNYFDPRVRIDINGRDYHGRELALEQLLRWIEDLGVKHFDHYEIHDREIQGEKVNLNIEITLTFDGRRHTIHHNFHMEKVNGKWVIESIHIR”, the protease stability score is 1.19.

For the sequence “NEVEDEIKHLLEHLLHSHDTGDWHDLVRLADPNVRVNINGKHFHGREDVEEVIKRLGIKHIRIHHVEVQGDKIHIDGNMHFDGRVYETHIDAKKIDGRWIMHNLEVR”, the protease stability score amounted to 1.4.

Turning to “NEWKEKFERFTRLLLTALMTGNEELLTKMVDPHVKVDIIINGQHIEHHGMERVIEMLTQLRVDRWRIKHIDIQGDKLHVNIHLDIKYDGRREETRTEIRLIIYDGVVHEIEIHLH”, the protease stability score came to 1.99.

Turning to “NEWQEILLRISEKILKDLFTGNEEVWEKLVDPDAQVHINGKEVHGREEALHFLKELKDELRVEHLFIRDVKLQGDKVSLTSESRGNVNGVRRDMKVEIIVIVINGRVKHEKFIII”, the protease stability score came out at 1.37.
